Key:
[1] = target: T1, human CD200R1 isoform a on CHOK1 cells (CHOK1/hCD200R1a) (human, UniProt Q8TD46 25-348); assay: flow cytometry, CHOK1/hCD200R1a cells (FITC-Mean); table beside the curves
T1 construct: also called CHOK1/CD200R1a
T1 sequence: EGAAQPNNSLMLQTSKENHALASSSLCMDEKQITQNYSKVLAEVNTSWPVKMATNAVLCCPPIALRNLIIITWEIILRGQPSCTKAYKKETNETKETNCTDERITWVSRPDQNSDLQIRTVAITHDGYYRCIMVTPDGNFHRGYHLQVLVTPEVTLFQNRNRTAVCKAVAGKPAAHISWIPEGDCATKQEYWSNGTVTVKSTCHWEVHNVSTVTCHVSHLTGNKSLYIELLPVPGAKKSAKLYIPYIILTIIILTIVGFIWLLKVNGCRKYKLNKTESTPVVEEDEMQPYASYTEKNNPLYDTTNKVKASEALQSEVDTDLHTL
Description: (§1) This example is intended to investigate the in vitro binding activity of human anti-CD200R1 monoclonal antibodies to human/Cynomolgus macaques CD200R1a expressed on the surface of cells. The anti-CD200R1 antibodies were produced as described in Example 3.4 and the binding experiments at the cell level were performed using CHOK1/hCD200R1a and CHOK1-cynoCD200R1a.
(§2) Briefly, CHOK1/hCD200R1a cells and CHOK1-cynoCD200R1a cells were digested, and collected, and then were resuspended in PBS containing 2% BSA, respectively. The cell density was adjusted to 1×10⁶ cells/mL. The cells were seeded in a 96-well V-bottom plate (Corning, #3894) at 100 μL/well, followed by the addition of test antibodies and reference antibodies in a series diluted concentration, each at 100 μL/well. The cells were incubated away from light at 4° C. for 1 h. Thereafter, the cells in each well were rinsed twice with 100 μL of pre-cooled PBS containing 2% BSA, and centrifuged at 500 g at 4° C. for 5 min, and then the supernatant was discarded. 100 μL of fluorescent secondary antibody (Alexa Fluor 488-conjugated AffiniPure Goat Anti-Human IgG, Fcγ Fragment Specific, Jackson, #109-545-098, diluted in a 1:1000 ratio) was added in each well, and the plate was incubated away from light at 4° C. for 1 h. The cells in each well were rinsed twice with 100 μL of pre-cooled PBS containing 2% BSA, and centrifuged at 500 g at 4° C. for 5 min, and then the supernatant was discarded. Finally, the cells in each well were resuspended in 200 μL of pre-cooled PBS containing 2% BSA, and the fluorescence signal values were read using a BD CantoII flow cytometer.

[2] = target: T2, Cynomolgus macaques CD200R1 isoform a on CHOK1 cells (CHOK1/cynoCD200R1a) (Cynomolgus macaques); assay: flow cytometry, CHOK1/cynoCD200R1a cells; table beside the curves, head without unit, x axis Log [Ab] (nM)
T2 chain: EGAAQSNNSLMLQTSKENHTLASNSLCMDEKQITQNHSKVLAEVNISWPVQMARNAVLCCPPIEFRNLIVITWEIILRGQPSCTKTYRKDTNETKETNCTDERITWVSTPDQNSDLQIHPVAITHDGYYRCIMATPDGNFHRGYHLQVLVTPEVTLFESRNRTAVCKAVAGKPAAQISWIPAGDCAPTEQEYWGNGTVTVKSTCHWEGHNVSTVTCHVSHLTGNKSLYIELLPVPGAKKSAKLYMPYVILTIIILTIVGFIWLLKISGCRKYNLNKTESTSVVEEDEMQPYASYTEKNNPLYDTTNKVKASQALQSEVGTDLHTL
Description: as §1
as §2, with “100 μL of fluorescent secondary antibody (Alexa Fluor 488-conjugated AffiniPure Goat Anti-Human IgG, Fcγ Fragment Specific, Jackson, #109-545-098, diluted in a 1:1000 ratio) was added in each well, and the plate was incubated away from light at 4° C. for 1 h. The cells in each well were rinsed twice with 100 μL of pre-cooled PBS containing 2% BSA, and centrifuged at 500 g at 4° C. for 5 min, and then the supernatant was discarded.” left out

[3] = target: T1, human CD200R1 isoform a on CHOK1 cells …; assay: flow cytometry blocking assay: biotin-labelled human CD200 binding to CHOK1/hCD200R1a cells; y axis Inhibition %
Description: (§3) In brief, CHOK1/hCD200R1a cells were digested and resuspended in 2% BSA in PBS. […] The cells were placed at 4° C. and incubated for 1 hour in the dark. […] 100 μL/well of pre-cooled PBS containing 2% BSA was added to rinse the cells twice, centrifugation was performed at 500 g, 4° C. for 5 minutes, and the supernatant was discarded. Fluorescent secondary antibody (PE Streptavidin, BD, Cat #: 554061, 1:200) was added at 100 μL/well, and incubation was performed at 4° C. for 30 minutes in the dark. The cells were washed twice with 200 μL/well of pre-cooled PBS, and were centrifuged at 500 g, 4° C. for 5 minutes, and the supernatant was discarded. Finally, 200 μL/well of pre-cooled PBS was used to resuspend the cells, and the fluorescence signal values were read using ACEA Novocyte 3000 flow cytometer. IC50 values were calculated.

[4] = target: T1, human CD200R1 isoform a on CHOK1 cells …; assay: flow cytometry, CHOK1/hCD200R1a cells (FITC-Mean); table beside the curves, head without unit, x axis Log [Ab] (nM)
[5] = target: T1, human CD200R1 isoform a on CHOK1 cells …; assay: flow cytometry blocking assay: antibody titrated against biotin-labelled human CD200 binding to CHOK1/hCD200R1a cells
Description: To study the activity of human anti-CD200R1 antibodies in blocking the binding of human CD200 to its receptor CD200R1a in vitro, CHOK1/hCD200R1a was used to perform cell-level human CD200/human CD200R1a binding and blocking experiments.
as §3

[6] = target: T1, human CD200R1 isoform a on CHOK1 cells …; assay: flow cytometry, CHOK1/hCD200R1a cells; table beside the curves, head without unit, x axis Log [Ab] (nM)
Description: as §1
as §2, with “100 μL of fluorescent secondary antibody (Alexa Fluor 488-conjugated AffiniPure Goat Anti-Human IgG, Fcγ Fragment Specific, Jackson, #109-545-098, diluted in a 1:1000 ratio) was added in each well, and the plate was incubated away from light at 4° C. for 1 h. The cells in each well were rinsed twice with 100 μL of pre-cooled PBS containing 2% BSA, and centrifuged at 500 g at 4° C. for 5 min, and then the supernatant was discarded.” left out

[7] = target: T2, Cynomolgus macaques CD200R1 isoform a …; assay: flow cytometry, CHOK1/cynoCD200R1a cells; table beside the curves, head without unit, x axis Log [Ab] (nM)
Description: as §1, §2

[8] = target: T2, Cynomolgus macaques CD200R1 isoform a …; assay: flow cytometry, CHOK1/cynoCD200R1a cells (APC-A Mean); table beside the curves

B1: PR002906 (antibody, V domains shown)
VH: QVQLQESGPGLVKPSETLSLTCTVSGYTITSGYDWSWIRQPPGKGLEWIGYINYGGSTNYKPSLGSRVTISVDTSKNQFSLKLSSVTAADTAVYYCARYNEYKSYIYDWYFDFWGQGTLVTVSS
VL: DIQMTQSPSSLSASVGDRVTITCKASKNIRSYLAWYQQKPGKAPKLLIYSGSTLHSGVPSRFSGSGSGTDFTLTISSLQPEDFATYYCQQHHEYPLTFGQGTKVEIKR
notes: also called recombinant IgG1 antibody of huDX182
- MFI(Max) [1]: 13900
- EC50 [2]: 15.5 nM
- Blocking(Max) [3]: 96.6%
- EC50 [4]: 0.436 nM
- Blocking (Max %) [5]: 98.3%
- IC50 [5]: 1.58 nM
- EC50 [6]: 15.2 nM
- EC50 [7]: 20.8 nM
- EC50 [8]: 16.4 nM
- MFI (MAX) [8]: 23900

B2: PR005509 (antibody, human IgG1, kappa, L234A L235A, V domains shown)
VH: QVQLVESGGGVVQPGRSLRLSCAASGFTFSSYGFHWVRQAPGKGLEWLGLIWSDGSNKYYADSVKGRFTISRDNSKNTLYLQMNSLRAEDTAVYYCARDRIVGAGFDYWGQGTLVTVSS
VL: not shown
- EC50 [2]: 4.2 nM
- Blocking (Max %) [5]: 102%
- IC50 [5]: 0.485 nM
- EC50 [6]: 6.57 nM

B3: PR005474 (antibody, human IgG1, kappa, L234A L235A, V domains shown)
VH: QVQLVESGGGVVQPGRSLRLSCAASAFTFSSYGMHWVRQAPGKGLEWVALIWNDGSNKFYADSVKGRFTISRDNSKNTLFLQMNSLRAEDTAVYYCARDRILGAGFDYWGQGTLVTVSS
VL: not shown
- Blocking (Max %) [5]: 101%
- IC50 [5]: 0.309 nM
- EC50 [7]: 3.34 nM

B4: PR007973 (antibody, human IgG1, kappa, V domains shown)
VH: QVQLVESGGGVVQPGRSLRLSCAASGFTFSSYGFHWVRQAPGKGLEWLGIIWSDASNKYYADSVKGRFTISRDNSKNTLYLQMNSLRAEDTAVYYCARDRIVGEGFDYWGQGTLVTVSS
VL: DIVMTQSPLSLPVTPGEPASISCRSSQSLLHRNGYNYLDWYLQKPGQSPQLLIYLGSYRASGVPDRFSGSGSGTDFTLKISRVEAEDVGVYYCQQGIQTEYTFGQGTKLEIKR
notes: PTM variant of PR006839 (human IgG1)
- MFI(Max) [1]: 19200
- Blocking(Max) [3]: 100%
- EC50 [4]: 0.339 nM
- EC50 [8]: 3.78 nM
- MFI (MAX) [8]: 62500

B5: PR006480 (antibody, human IgG1, kappa, L234A L235A)
heavy: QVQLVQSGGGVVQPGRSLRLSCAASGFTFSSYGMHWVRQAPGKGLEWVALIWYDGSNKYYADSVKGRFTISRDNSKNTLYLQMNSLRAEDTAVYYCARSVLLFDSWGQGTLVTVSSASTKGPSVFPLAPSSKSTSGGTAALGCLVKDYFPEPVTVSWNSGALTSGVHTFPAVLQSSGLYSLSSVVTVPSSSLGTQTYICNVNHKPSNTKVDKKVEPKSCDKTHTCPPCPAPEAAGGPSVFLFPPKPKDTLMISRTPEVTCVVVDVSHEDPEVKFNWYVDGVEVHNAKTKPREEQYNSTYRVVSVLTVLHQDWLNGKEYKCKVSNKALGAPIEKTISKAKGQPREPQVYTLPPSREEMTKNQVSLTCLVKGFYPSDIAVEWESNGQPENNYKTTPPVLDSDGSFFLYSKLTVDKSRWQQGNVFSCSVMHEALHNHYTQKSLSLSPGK
light: DIQMTQSPPSLSASVGDRVTITCRASQSISSYLNWFQQKAGKAPKLLISATSNLQSGVPSRFSGSGSGTDFTLTISSLQPEDLATYYCQQSYSSPYTFGQGTKVEIKRTVAAPSVFIFPPSDEQLKSGTASVVCLLNNFYPREAKVQWKVDNALQSGNSQESVTEQDSKDSTYSLSSTLTLSKADYEKHKVYACEVTHQGLSSPVTKSFNRGEC
notes: also called PR6480
- Blocking (Max %) [5]: 63.3%
- IC50 [5]: 0.607 nM
- EC50 [7]: 2.98 nM

From patent US20250313626A1 (HARBOUR BIOMED SHANGHAI, published 2025)
